# The supplement of paper PMC12042874
# ± gives the uncertainty stated by the source.
# Assay: amyloid nucleation score (Sup35N fusion, yeast selection) (log enrichment); library NNK1; higher = more nucleation; inactive = no reads after selection
# Method in brief: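 Using DiMSum, nucleation scores were taken as the log enrichment of output over input reads, centred on the mode score of non-aggregating sequences. The input and output reads came from Illumina sequencing of plasmid inserts, with sequences under 100 input reads excluded. The yeast were psi-negative, expressed Sup35N fused to peptides of 20 random codons, were induced with 100 μM copper sulfate for 24 hours, and were grown 7 days at 30°C on medium lacking adenine and uracil.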
row,Substance,amyloid nucleation score
1,MGGRGGTDCRASMYSSACMG,1.74 ± 0.26
2,MGGVMAVLFRIMLGVIF,inactive
3,MGHAGTLCFANNCLNM,7.483 ± 0.059
4,MGTLDI,inactive
5,MGVDYARSVW,-0.202 ± 0.76
6,MGVFRLNHSQTLRTGQSVEF,-1.18 ± 2.1
7,MGVLKWLATRLDWFKKIMCR,2.3 ± 0.13
8,MHFIRALIEFH,1.88 ± 0.2
9,MICKMNYQVRIPINFSYCLN,2.43 ± 0.15
10,MIIPD,1.14 ± 0.34
11,MILRVVCHLNVCS,6.921 ± 0.05
12,MIPKNFLGGNPLQRRESPIC,0.828 ± 0.62
13,MISGCLRVLMRAGVKHYVFM,0.369 ± 0.93
14,MIVDNHWHECYSRAS,-1.76 ± 1.4
15,MIWAEQCVMWPGACVMVIK,4.64 ± 0.09
16,MIYVGVDISV,2.24 ± 0.28
17,MKQQAQPVFVWSSAGGGCES,-0.606 ± 0.47
18,MKRASSLMINFMMPCNFYCG,0.532 ± 0.62
19,MLFDV,-0.077 ± 0.21
20,MLGKNSSCESNMEYVFRSCL,0.244 ± 0.23
21,MLHWLKLIRTIGRFIRFFRC,inactive
22,MLIKSIFIFSTLLYISMYD,0.786 ± 0.29

row,Substance,amyloid nucleation score
1,MLLEFCKCGVGSIVWCQKFA,4.94 ± 0.11
2,MLLFSSVITVMFFGTSIHDG,-0.101 ± 1.2
3,MLRTQQFSLLFEYHVHGEGG,3.75 ± 0.075
4,MLVDIGRC,-1.31 ± 1.6
5,MLVFYCNRN,2.88 ± 0.22
6,MMAIIFMCNV,3.05 ± 0.18
7,MMFSRILCNGDPQGSARWLS,inactive
8,MMIWNSNSEQVRCIIGMPWL,4.79 ± 0.085
9,MMLCSYKWVF,0.1 ± 0.24
10,MMSPR,-0.921 ± 2.4
11,MNEERVGNLIFCRDSFMSSW,-0.096 ± 0.97
12,MNKFNCRIMDDSDSALFSIA,0.486 ± 0.4
13,MNMVCS,1.15 ± 0.58
14,MNNCKGTI,-0.679 ± 0.79
15,MPCFCYTCGRVMLVRIRQTR,inactive
16,MPYLNGHYRH,inactive
17,MQMSLTDSGGVYVDGLVGYL,-0.239 ± 0.31
18,MRCGAL,0.2 ± 1.2
19,MRCKCGLYAHSYSALLGNVE,inactive
20,MRFAVTD,-0.146 ± 0.23
21,MRFVIQVLYTGGTKKSSHLM,1.16 ± 0.79
22,MRISFAITCTVTN,0.248 ± 0.28

row,Substance,amyloid nucleation score
1,MRITILYYLGKQNRSFWWFC,0.108 ± 0.35
2,MRKTFDAVLNAFFCKALFCY,0.759 ± 0.39
3,MRSIH,-0.11 ± 0.74
4,MRSKREMSFMTHEILVCNDA,0.509 ± 0.31
5,MRVLDTNSGLMTITPFPVHS,-0.574 ± 0.67
6,MRVVPHVWLTWHEATVVLQV,0.807 ± 0.28
7,MSALTGQKPLVMVGGLCAVG,0.449 ± 0.55
8,MSKKMQRPRVAAVGFERFGT,-0.174 ± 0.9
9,MSLMSRDVVMHIGMSWYSRG,4.21 ± 0.12
10,MSMLLDSDCLRYFSQEVFWV,-0.742 ± 1.4
11,MSRRWV,-1.01 ± 0.79
12,MSSNMLSEKWASGTEHVGVV,-0.657 ± 0.69
13,MTALFGRVSG,-0.134 ± 1.1
14,MTEQAQ,0.286 ± 1.4
15,MTGQTCRFEGSFRFMERCRK,0.43 ± 1
16,MTRVCL,-0.035 ± 0.62
17,MTSYGSFRKATWNDWISNMS,-0.393 ± 0.41
18,MTWMPFGPHTAGMMGHLYFG,-0.398 ± 0.64
19,MTYDGCNSCKHLKSGKLRWC,0.117 ± 0.29
20,MVFLGCSGLVCERCAGWLAR,5.58 ± 0.11
21,MVHKWVIFFNRTVCRLMLPV,0.589 ± 0.37
22,MVHWVILYAADFPIETLNK,inactive

row,Substance,amyloid nucleation score
1,MVRGQVNPNSFNARWY,inactive
2,MVSNNNLYPF,inactive
3,MVVFDRRGLSYPVS,0.556 ± 0.52
4,MVVQRLF,-0.54 ± 0.78
5,MWELRFVLCLMIHEFRRWHE,-0.056 ± 0.64
6,MWGTCSYSYLDSCRVTLFMR,2.06 ± 0.2
7,MWYLMRTLTLIRFFVSPVGS,0.154 ± 0.31
8,MWYVHHCQGSVTLLARGRLC,0.886 ± 1
9,MYPTLRTRPTCIYVR,1.19 ± 0.53
10,MYRYLPNSTLLSRVLDTSSY,inactive
11,MYTSRQNSARNRKLNSIAGF,-0.721 ± 0.77
12,MYYCD,-0.35 ± 0.54
13,NACFRYKAKMDRMSTRGANS,1.88 ± 0.39
14,NAVTFLHIVLRENNHGRMHK,6.21 ± 0.073
15,NCACC,6.12 ± 0.065
16,NCFLCSVARNNYVLRCPSSN,6.07 ± 0.067
17,NCFRLILFVLSDHRQWCFES,-1.78 ± 1.7
18,NCGTVHGHADGSYVCDMGSR,-0.022 ± 0.98
19,NCSGVFKGKSLTSCGT,-0.038 ± 0.21
20,NCWFCNRQNSLSGKELYVIR,inactive
